Measured values from patent publication US5098841A, “Process for the preparation of hydroxy acids” (CIBA-GEIGY Corporation, priority 1988, dated 1992).

Key:
[1] = Specific activity of commercially available dehydrogenases based on pyruvate; type: biochemical; details: substrate pyruvate
Source text: (§1) The continuous reaction method, especially in an enzyme membrane reactor, is preferred for both processes.
(§2) U--unit of enzyme activity (under defined reaction conditions, 1 U produces a substance conversion of 1 μmol/min)

[2] = Specific activity of commercially available dehydrogenases based on 2-keto-4-phenylbutyric acid; type: biochemical; details: substrate 2-keto-4-phenylbutyric acid
Source text: as §1, §2

Substance: L-LDH bovine heart Fluka 61310: commercially available L-lactate dehydrogenase from bovine heart, Fluka 61310
- U/mg protein based on pyruvate [1]: 300 U/mg protein
- U/mg protein based on 2-keto-4-phenylbutyric acid [2]: 0.07 U/mg protein
